Assay results reported in PMC2912373, “Low-Density Lipoprotein Receptor-Related Protein 1 (LRP1) Mediates Neuronal Aβ42 Uptake and Lysosomal Trafficking” (PLoS ONE, 2010).
“Also recorded” adds a separate entry of the source.

Tests used:
N2a-mLRP4 cells = experiment: MTS redox cell viability assay in Aβ42 treated cells; assay type: cell-based, mouse; conditions: 3 µM Aβ42, 72 h; only in mLRP4-expressing cells, not N2a-pcDNA3; p<0.05, n = 3
Description: We hypothesized that Aβ42 treatment might increase cell death in mLRP4-overexpressing N2a cells because we detected increased co-localization of Aβ42 with lysosomes in these cells. We treated N2a-pcDNA3 and N2a-mLRP4 cells with Aβ42 for 24, 48 and 72 h and assessed cell viability by reduction of the MTS redox dye. Aβ42 was prepared identically to the FAM-Aβ42 experiments.
Figure 5 Increased susceptibility to Aβ42-mediated cell death in LRP1 minireceptor-expressing cells. N2a-pcDNA3 and N2a-mLRP4 cells were incubated with increasing concentrations of Aβ42 for 24, 48 and 72 h and cell viability was assessed by the reduction of the MTS dye.
N2a-pcDNA3 and N2a-mLRP4 cells were plated at 16,250 cells/cm^2 in 48-well plates and grown overnight. Serial dilutions of freshly prepared synthetic Aβ42 were prepared by diluting the Aβ42 stock with internalization media. Culture media was then replaced with media containing 0, 1 or 3 µM Aβ42 and cells were incubated for an additional 24, 48 or 72 h. Cell viability was measured by using one-solution cell titer kit at each corresponding time point (Promega, Madison, WI). After 4 h labeling, the soluble reduced formazan product was quantified by directly reading the plate in a Bio-Tek plate reader. After background subtraction from media-only containing wells, results were represented as % of the corresponding control and untreated N2a cells.

LRP1 = conditions: ref [23], [36]; cited from earlier work
N2a-mLRP4-Tless cells = experiment: Kinetic analysis of 125I-RAP endocytosis; assay type: cell-based, mouse; conditions: 5 nM 125I-RAP, 4°C 60 min, then 37°C; internalized/total cell-associated ligand; triple determinations
Description: Figure 4 LRP1 endocytosis is required for Aβ42 uptake and accumulation in N2a cells. A, clathrin heavy chain (CHC) knockdown increases cell surface levels of mLRP4. N2a-mLRP4 cells were infected with CHC shRNA lentivirus or pLKO, control lentivirus. The levels of cell surface and total pools of mLRP4 were determined by flow cytometric analyses with anti-HA antibody in non-permeabilized and saponin-treated cells, respectively. The surface-to-total ratio were calculated and plotted as fold-change to control-infected cells. Right panel, decreased CHC levels and normal mLRP4 levels in transduced N2a-mLRP4 cells were verified by Western blot from sister cultures. […] The intracellular level of FAM-Aβ42 was determined by flow cytometric analyses of pronase-treated cells. […] The cell surface and total pools of the LRP1 minireceptor were determined by flow cytometric analyses with anti-HA antibody as in A in N2a-mLRP4 cells and in N2a cells stably transfected with a deletion variant lacking the cytoplasmic tail of mLRP4 (mLRP4-Tless). The surface-to-total ratios were then calculated and plotted as fold-change to N2a-mLRP4 cells. […] At each time point, the amounts of ligand that is either internalized or that remains at the cell surface were determined and the ratios of internalized to total cell-associated ligand were plotted against time. […]

Aβ42: Unlabeled synthetic Aβ42 obtained from Bachem
cell viability (reduction of MTS dye) (N2a-mLRP4 cells): slight yet significant decrease; also recorded: Decreased viability

RAP: LRP1 chaperone of 39-kDa, model extracellular ligand for LRP1; labeled with Alexa-488 for uptake
affinity of RAP binding to LRP1 (LRP1): high affinity

B1: ^125I-RAP: iodinated RAP protein used at 5 nM for kinetic analysis of endocytosis (protein, UniProt P30533 35-357, looked up)
Alpha-2-macroglobulin …: YSREKNQPKPSPKRESGEEFRMEKLNQLWEKAQRLHLPPVRLAELHADLKIQERDELAWKKLKLDGLDEDGEKEARLIRNLNVILAKYGLDGKKDARQVTSNSLSGTQEDGLDDPRLEKLWHKAKTSGKFSGEELDKLWREFLHHKEKVHEYNVLLETLSRTEEIHENVISPSDLSDIKGSVLHSRHTELKEKLRSINQGLDRLRRVSHQGYSTEAEFEEPRVIDLWDLAQSANLTDKELEAFREELKHFEAKIEKHNHYQKQLEIAHEKLRHAESVGDGERVSRSREKHALLEGRTKELGYTVKKHLQDLSGRISRARHNEL
modifications: 125I-labeled
notes: iodinated RAP protein used at 5 nM for kinetic analysis of endocytosis
endocytosis rate for 125I-RAP in N2a-mLRP4-Tless vs N2a-mLRP4 cells (N2a-mLRP4-Tless cells): decreased
